Source: the supplement of paper PMC9112550, “Optimization of the antimicrobial peptide Bac7 by deep mutational scanning” (BMC Biology, 2022)

System: Escherichia coli TOP10
Assay: shrunken log2 fold change of peptide-encoding DNA abundance (4.5 h post-induction vs induction); higher = less antimicrobial activity (less host growth inhibition)
Details: time post-induction: 4.5 h; library: site-saturation at positions 5, 18, 19, 20
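Also: peptides expressed intracellularly from a pBAD plasmid library in pooled LB shake-flask culture, induced with 0.3% L-arabinose, DNA abundance read by NGS, three biological replicates, DESeq2 with apeglm shrinkage.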

## RRIRSRPPRLPRPRPRPYYVPRP
  shrunken log2 fold change: -0.274

## RRIRPRPPRLPRPRPRPNPIPRP
  shrunken log2 fold change: -0.237

## RRIRDRPPRLPRPRPRPIFWPRP
  shrunken log2 fold change: 0.0145

## RRIRNRPPRLPRPRPRPNEYPRP
  shrunken log2 fold change: -0.312

## RRIRGRPPRLPRPRPRPNLQPRP
  shrunken log2 fold change: 0.347

## RRIRMRPPRLPRPRPRPTKSPRP
  shrunken log2 fold change: 0.459

## RRIRMRPPRLPRPRPRPPNIPRP
  shrunken log2 fold change: -0.113

## RRIRERPPRLPRPRPRPRTKPRP
  shrunken log2 fold change: 0.175

## RRIRQRPPRLPRPRPRPWLSPRP
  shrunken log2 fold change: 0.0988

## RRIRSRPPRLPRPRPRPRWHPRP
  shrunken log2 fold change: 0.111

## RRIRVRPPRLPRPRPRPWLFPRP
  shrunken log2 fold change: 0.141

## RRIRSRPPRLPRPRPRPIKRPRP
  shrunken log2 fold change: 0.0449

## RRIRLRPPRLPRPRPRPTFLPRP
  shrunken log2 fold change: -0.153

## RRIRYRPPRLPRPRPRPMPEPRP
  shrunken log2 fold change: 0.0501

## RRIRFRPPRLPRPRPRPQSFPRP
  shrunken log2 fold change: 0.00824

## RRIRLRPPRLPRPRPRPPYHPRP
  shrunken log2 fold change: -0.317

## RRIRWRPPRLPRPRPRPLPGPRP
  shrunken log2 fold change: 0.215

## RRIRIRPPRLPRPRPRPLISPRP
  shrunken log2 fold change: -0.127

## RRIRPRPPRLPRPRPRPLGCPRP
  shrunken log2 fold change: 0.376

## RRIRWRPPRLPRPRPRPFHEPRP
  shrunken log2 fold change: -0.0657

## RRIRMRPPRLPRPRPRPTLRPRP
  shrunken log2 fold change: 0.334

## RRIRHRPPRLPRPRPRPHTYPRP
  shrunken log2 fold change: -0.79

## RRIRYRPPRLPRPRPRPSAEPRP
  shrunken log2 fold change: -0.0651

## RRIRYRPPRLPRPRPRPGVFPRP
  shrunken log2 fold change: -0.0987

## RRIRTRPPRLPRPRPRPQHNPRP
  shrunken log2 fold change: -0.324

## RRIRQRPPRLPRPRPRPFWIPRP
  shrunken log2 fold change: -0.0587

## RRIRQRPPRLPRPRPRPTAKPRP
  shrunken log2 fold change: 0.151

## RRIRHRPPRLPRPRPRPMGWPRP
  shrunken log2 fold change: 0.317

## RRIRGRPPRLPRPRPRPEVWPRP
  shrunken log2 fold change: 1.58

## RRIRHRPPRLPRPRPRPRRGPRP
  shrunken log2 fold change: 0.343

## RRIRPRPPRLPRPRPRPQAEPRP
  shrunken log2 fold change: 0.113

## RRIRERPPRLPRPRPRPLMCPRP
  shrunken log2 fold change: -0.267

## RRIRVRPPRLPRPRPRPNPMPRP
  shrunken log2 fold change: 0.0227

## RRIRPRPPRLPRPRPRPFCEPRP
  shrunken log2 fold change: 0.0972

## RRIRTRPPRLPRPRPRPVQQPRP
  shrunken log2 fold change: 0.0144

## RRIRQRPPRLPRPRPRPIHNPRP
  shrunken log2 fold change: -0.464

## RRIRRRPPRLPRPRPRPREWPRP
  shrunken log2 fold change: 1.03

## RRIRDRPPRLPRPRPRPFCAPRP
  shrunken log2 fold change: 0.652

## RRIRQRPPRLPRPRPRPNQEPRP
  shrunken log2 fold change: -0.0578

## RRIRARPPRLPRPRPRPIRFPRP
  shrunken log2 fold change: 0.247

## RRIRNRPPRLPRPRPRPESMPRP
  shrunken log2 fold change: 0.669

## RRIRNRPPRLPRPRPRPDTQPRP
  shrunken log2 fold change: -0.149

## RRIRVRPPRLPRPRPRPHCWPRP
  shrunken log2 fold change: 0.0268

## RRIRNRPPRLPRPRPRPRMDPRP
  shrunken log2 fold change: -0.104

## RRIRTRPPRLPRPRPRPVYIPRP
  shrunken log2 fold change: -0.6

## RRIRRRPPRLPRPRPRPSFGPRP
  shrunken log2 fold change: 0.365

## RRIRVRPPRLPRPRPRPNFCPRP
  shrunken log2 fold change: -0.139

## RRIRWRPPRLPRPRPRPHCLPRP
  shrunken log2 fold change: 0.0644

## RRIRIRPPRLPRPRPRPGNQPRP
  shrunken log2 fold change: -0.839

## RRIRHRPPRLPRPRPRPMTCPRP
  shrunken log2 fold change: -0.137

## RRIRFRPPRLPRPRPRPFVLPRP
  shrunken log2 fold change: -0.532

## RRIRYRPPRLPRPRPRPNDEPRP
  shrunken log2 fold change: -0.034

## RRIRLRPPRLPRPRPRPYYKPRP
  shrunken log2 fold change: -0.569

## RRIRWRPPRLPRPRPRPWPVPRP
  shrunken log2 fold change: 0.502

## RRIRDRPPRLPRPRPRPWVLPRP
  shrunken log2 fold change: -0.00957

## RRIRGRPPRLPRPRPRPGVPPRP
  shrunken log2 fold change: 1

## RRIRQRPPRLPRPRPRPSQSPRP
  shrunken log2 fold change: -0.00144

## RRIRVRPPRLPRPRPRPVFEPRP
  shrunken log2 fold change: -0.0665

## RRIRSRPPRLPRPRPRPIDMPRP
  shrunken log2 fold change: -0.00448

## RRIRCRPPRLPRPRPRPCCEPRP
  shrunken log2 fold change: 0.0666

## RRIRQRPPRLPRPRPRPQFAPRP
  shrunken log2 fold change: -0.00983

## RRIRFRPPRLPRPRPRPNWPPRP
  shrunken log2 fold change: 0.333

## RRIRARPPRLPRPRPRPEVCPRP
  shrunken log2 fold change: 1.25

## RRIRMRPPRLPRPRPRPRLWPRP
  shrunken log2 fold change: 0.103

## RRIRKRPPRLPRPRPRPYQDPRP
  shrunken log2 fold change: 0.0178

## RRIRRRPPRLPRPRPRPYRRPRP
  shrunken log2 fold change: 0.0385

## RRIRLRPPRLPRPRPRPEIRPRP
  shrunken log2 fold change: -0.0685

## RRIRVRPPRLPRPRPRPMVDPRP
  shrunken log2 fold change: -0.0954

## RRIRLRPPRLPRPRPRPRKWPRP
  shrunken log2 fold change: 0.184

## RRIRNRPPRLPRPRPRPYTMPRP
  shrunken log2 fold change: -0.38

## RRIRARPPRLPRPRPRPHALPRP
  shrunken log2 fold change: 0.112

## RRIRPRPPRLPRPRPRPYDCPRP
  shrunken log2 fold change: -0.021

## RRIRSRPPRLPRPRPRPEAYPRP
  shrunken log2 fold change: -0.141

## RRIRTRPPRLPRPRPRPFACPRP
  shrunken log2 fold change: -0.198

## RRIRFRPPRLPRPRPRPEIAPRP
  shrunken log2 fold change: -0.0213

## RRIRARPPRLPRPRPRPTQQPRP
  shrunken log2 fold change: -0.0711

## RRIRKRPPRLPRPRPRPRQGPRP
  shrunken log2 fold change: 0.708

## RRIRHRPPRLPRPRPRPILSPRP
  shrunken log2 fold change: -0.0163

## RRIRKRPPRLPRPRPRPIDVPRP
  shrunken log2 fold change: 0.191

## RRIRFRPPRLPRPRPRPATYPRP
  shrunken log2 fold change: -0.191

## RRIRVRPPRLPRPRPRPGQLPRP
  shrunken log2 fold change: 0.208

## RRIRQRPPRLPRPRPRPGQCPRP
  shrunken log2 fold change: -0.156

## RRIRARPPRLPRPRPRPHMSPRP
  shrunken log2 fold change: -0.181

## RRIRGRPPRLPRPRPRPLHNPRP
  shrunken log2 fold change: 0.249

## RRIRARPPRLPRPRPRPYYAPRP
  shrunken log2 fold change: -0.501

## RRIRIRPPRLPRPRPRPRAQPRP
  shrunken log2 fold change: 0.27

## RRIRARPPRLPRPRPRPFRDPRP
  shrunken log2 fold change: -0.169

## RRIRIRPPRLPRPRPRPEYIPRP
  shrunken log2 fold change: -0.667

## RRIRKRPPRLPRPRPRPNTHPRP
  shrunken log2 fold change: -0.125

## RRIRERPPRLPRPRPRPESVPRP
  shrunken log2 fold change: -0.316

## RRIRWRPPRLPRPRPRPTIMPRP
  shrunken log2 fold change: -0.0533
